Consider nine molecules from PMC5816164 (Proceedings of the National Academy of Sciences of the …, 2018).

One test addresses KCNQ4 (Homo sapiens, UniProt P56696). Put plainly: Whole-cell patch clamp of KCNQ4 currents in HEK293T cells. Format: cell-based. To be noted: for effect of conservative replacement on inhibition of KCNQ channels: 10 μM toxin, KCNQ4 currents (Fig. S2D); for effect of alanine substitution on inhibition of KCNQ4: 10 μM and 50 μM toxin mutants compared with WT SsTx (Fig. 2 A and B).

In a further test the test system is mice hippocampi. Put plainly: Acetylcholine quantification in hippocampus after microinjection. Format: in vivo, mouse.
The test system of the next test is bronchial rings. On the set-up: species or system Sprague-Dawley rats.
The subject of the next test is thoracic aorta. On the set-up: species or system Sprague-Dawley rats.
A further test relates to C57BL/6J mice. Put plainly: Microinjection into the hippocampus of mice. To be noted: 1 μL of 20 μM SsTx and 40 μM retigabine mixture in the hippocampus. Format: in vivo, mouse.
The next test has as its target KCNQ4_D288A (UniProt P56696).
The next test deals with KCNQ4_D266G (UniProt P56696).

Bridge positions count the residues as written; N and C are the ends. Ends that are not written are not given here.

Chain of KCNQ4 (P56696 whole entry): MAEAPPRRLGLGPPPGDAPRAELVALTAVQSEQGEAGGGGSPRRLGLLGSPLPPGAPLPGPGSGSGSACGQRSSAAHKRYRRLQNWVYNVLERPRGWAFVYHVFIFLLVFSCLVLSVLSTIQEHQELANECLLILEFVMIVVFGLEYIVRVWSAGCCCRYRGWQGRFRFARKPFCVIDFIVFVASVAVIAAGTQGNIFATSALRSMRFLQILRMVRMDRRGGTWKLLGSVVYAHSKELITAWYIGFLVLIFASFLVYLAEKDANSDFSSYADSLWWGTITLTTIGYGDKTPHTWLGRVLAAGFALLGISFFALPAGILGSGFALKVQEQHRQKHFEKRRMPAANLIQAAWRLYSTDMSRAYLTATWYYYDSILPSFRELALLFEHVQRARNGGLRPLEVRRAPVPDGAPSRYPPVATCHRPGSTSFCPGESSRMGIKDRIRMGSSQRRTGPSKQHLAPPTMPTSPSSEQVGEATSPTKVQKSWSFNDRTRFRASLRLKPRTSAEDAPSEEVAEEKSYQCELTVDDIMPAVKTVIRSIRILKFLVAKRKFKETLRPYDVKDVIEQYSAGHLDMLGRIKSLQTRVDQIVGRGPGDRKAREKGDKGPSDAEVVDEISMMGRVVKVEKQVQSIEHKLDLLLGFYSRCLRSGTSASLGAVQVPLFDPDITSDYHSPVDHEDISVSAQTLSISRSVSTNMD
Chain of KCNQ4_D288A (P56696 whole entry D288A): as the sequence (P56696 whole entry) above, with D288A counted along it
Chain of KCNQ4_D266G (P56696 whole entry D266G): as the sequence (P56696 whole entry) above, with D266G counted along it

Consider “K13R: SsTx point mutant, lysine 13 replaced with arginine (EVIKKDTPYKKRRFPYKSECLKACATSFTGGDESRIQEGKPGFFKCTCYFTTG; ends and bridges not checked; cysteine pairing not given here)”, for which, in the test with KCNQ4, the “effect of conservative replacement on inhibition of KCNQ channels” value was “minimal influence on SsTx inhibition of KCNQ channels”. Turning to “K13A: SsTx single point mutant, alanine substitution of K13 (EVIKKDTPYKKRAFPYKSECLKACATSFTGGDESRIQEGKPGFFKCTCYFTTG; ends and bridges not checked; cysteine pairing not given here)”, the “effect of alanine substitution on inhibition of KCNQ4” value (from here on “effect … on inhibition of KCNQ4”) in the test with KCNQ4 is “reduces the toxin’s inhibitory effect on KCNQ4”.

Turning to “R12A: SsTx single point mutant, alanine substitution of R12 (EVIKKDTPYKKAKFPYKSECLKACATSFTGGDESRIQEGKPGFFKCTCYFTTG; ends and bridges not checked; cysteine pairing not given here)”, in the test with KCNQ4, the “effect … on inhibition of KCNQ4” value is on record as “reduces the toxin’s inhibitory effect on KCNQ4”.

Consider `O=C1N(c2ccccc2)c2ccccc2C1(Cc1ccncc1)Cc1ccncc1` [linopirdine], for which the “increase of acetylcholine concentration” value in the test with mice hippocampi (mice hippocampi, 1 μL of 100 μM, 30 min after microinjection, n = 6) is listed as roughly 81.8%. On to “K10A: SsTx single point mutant, alanine substitution of K10 (EVIKKDTPYAKRKFPYKSECLKACATSFTGGDESRIQEGKPGFFKCTCYFTTG)”, for which, in the test with KCNQ4, the “effect … on inhibition of KCNQ4” value is given as “reduces the toxin’s inhibitory effect on KCNQ4”. On to `CCOC(=O)Nc1ccc(NCc2ccc(F)cc2)cc1N` [retigabine], for which, in the test with mice hippocampi (mixture of 10 μM SsTx and 40 μM RTG, n = 3), the “effect on SsTx-induced increase in acetylcholine secretion” value was “inhibited the SsTx-induced increase in spiking frequency and acetylcholine secretion”. In the test on bronchial rings, the “effect on bronchial ring contraction induced by crude venom or SsTx” value is “contraction can be reduced by retigabine”. The “effect on vessel toxicity induced by centipede crude venom and SsTx” value in the test with thoracic aorta is on record as “significantly reduced”. Further, in the test on C57BL/6J mice, the “effect on SsTx-induced seizure” value was “inhibited”.

Turning to “K11A: SsTx single point mutant, alanine substitution of K11 (EVIKKDTPYKARKFPYKSECLKACATSFTGGDESRIQEGKPGFFKCTCYFTTG)”, the “effect … on inhibition of KCNQ4” value in the test with KCNQ4 was “reduces the toxin’s inhibitory effect on KCNQ4”. Consider “R12K: SsTx point mutant, arginine 12 replaced with lysine (EVIKKDTPYKKKKFPYKSECLKACATSFTGGDESRIQEGKPGFFKCTCYFTTG; ends and bridges not checked; cysteine pairing not given here)”, for which, in the test with KCNQ4, the “effect of conservative replacement on inhibition of KCNQ channels” value is on record as “minimal influence on SsTx inhibition of KCNQ channels”.

B1: Ssm Spooky Toxin (SsTx) (peptide)
chain: EVIKKDTPYKKRKFPYKSECLKACATSFTGGDESRIQEGKPGFFKCTCYFTTG
modifications: disulfide 20-46, 24-48
In the case of B1, the inhibitory activity lost in the presence of 10 μM SsTx, against WT KCNQ4 in the test with KCNQ4_D288A came out at 97%; with KCNQ4_D266G it was 99%.
